In data set [1] the test system is HeLa Kyoto. The experiment in a line: thermal stability score vs G1/S (z-score of summed log2 fold changes over temperatures); higher = more thermally stable than in G1/S.
The subject of data set [2] is HeLa Kyoto. The experiment in a line: solubility in G1/S (NP-40 vs SDS abundance) (log2 ratio); higher = more soluble. The conditions noted are these: cell cycle stage: G1/S.
Data set [3] has as its system HeLa Kyoto. The experiment in a line: melting temperature (median over replicates), in situ; higher = more thermally stable.
The subject of data set [4] is HeLa Kyoto. The experiment in a line: solubility change mitosis vs G1/S (difference of NP-40 vs SDS log2 ratios) (log2 ratio difference); higher = more soluble in mitosis.
The mark [5] stands for this setting: cell cycle stage: early G1 (4.5 h after nocodazole release).
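Throughout, for melting temperature (median over replicates), in situ: HeLa Kyoto cells synchronized by double thymidine or nocodazole block, proteins quantified by TMT10plex mass spectrometry, three independent biological replicates.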
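Throughout, for solubility change mitosis vs G1/S (difference of NP-40 vs SDS log2 ratios): synchronized HeLa Kyoto cells (double thymidine block for G1/S, nocodazole release for mitosis), protein amounts in NP-40 versus SDS lysates quantified by mass spectrometry, three biological replicates.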
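Throughout, for solubility in G1/S (NP-40 vs SDS abundance): HeLa Kyoto cells arrested at G1/S by double thymidine block, proteins quantified by TMT10plex mass spectrometry in mild NP-40 versus SDS extracts, three biological replicates.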
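Throughout, for thermal stability score vs G1/S (z-score of summed log2 fold changes over temperatures): synchronized HeLa Kyoto cells, proteins quantified by TMT10plex mass spectrometry, three biological replicates, mitosis taken 0.5 h after nocodazole release, G1/S directly after double thymidine block.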

Turning to “MSLKLQASNVTNKNDPKSINSRVFIGNLNTALVKKSDVETIFSKYGRVAGCSVHKGYAFVQYSNERHARAAVLGENGRVLAGQTLDINMAGEPKPDRPKGLKRAASAIYSGYIFDYDYYRDDFYDRLFDYRGRLSPVPVPRAVPVKRPRVTVPLVRRVKTNVPVKLFARSTAVTTSSAKIKLKSSELQAIKTELTQIKSNIDALLSRLEQIAAEQKANPDGKKKGDGGGAGGGGGGGGSGGGGSGGGGGGGSSRPPAPQENTTSEAGLPQGEARTRDDGDEEGLLTHSEEELEHSQDTDADDGALQ [RALY]”, the thermal stability score in the data set on HeLa Kyoto [1] (setting [5]) was 2.9; with HeLa Kyoto [1] (cell cycle stage: mitosis), 8.45. Besides, the “solubility in G1/S (log2)” value with HeLa Kyoto [2] stood at 0.116. Besides, the melting temperature in the data set on HeLa Kyoto [3] (cell cycle stage: G1/S) amounted to 47.1 °C; in the data set on HeLa Kyoto [3] (cell cycle stage: mitosis), 49.4 °C. Moreover, the “solubility change mitosis (log2)” value in the data set on HeLa Kyoto [4] was determined as 0.275.

As for “MSLKPRVVDFDETWNKLLTTIKAVVMLEYVERATWNDRFSDIYALCVAYPEPLGERLYTETKIFLENHVRHLHKRVLESEEQVLVMYHRYWEEYSKGADYMDCLYRYLNTQFIKKNKLTEADLQYGYGGVDMNEPLMEIGELALDMWRKLMVEPLQAILIRMLLREIKNDRGGEDPNQKVIHGVINSFVHVEQYKKKFPLKFYQEIFESPFLTETGEYYKQEASNLLQESNCSQYMEKVLGRLKDEEIRCRKYLHPSSYTKVIHECQQRMVADHLQFLHAECHNIIRQEKKNDMANMYVLLRAVSTGLPHMIQELQNHIHDEGLRATSNLTQENMPTLFVESVLEVHGKFVQLINTVLNGDQHFMSALDKALTSVVNYREPKSVCKAPELLAKYCDNLLKKSAKGMTENEVEDRLTSFITVFKYIDDKDVFQKFYARMLAKRLIHGLSMSMDSEEAMINKLKQACGYEFTSKLHRMYTDMSVSADLNNKFNNFIKNQDTVIDLGISFQIYVLQAGAWPLTQAPSSTFAIPQELEKSVQMFELFYSQHFSGRKLTWLHYLCTGEVKMNYLGKPYVAMVTTYQMAVLLAFNNSETVSYKELQDSTQMNEKELTKTIKSLLDVKMINHDSEKEDIDAESSFSLNMNFSSKRTKFKITTSMQKDTPQEMEQTRSAVDEDRKMYLQAAIVRIMKARKVLRHNALIQEVISQSRARFNPSISMIKKCIEVLIDKQYIERSQASADEYSYVA [CUL2]”, the figures for the thermal stability score with HeLa Kyoto [1] (setting [5]) and in the data set with HeLa Kyoto [1] (cell cycle stage: mitosis) were -0.0958 and -0.6, respectively. In the data set with HeLa Kyoto [2], the “solubility in G1/S (log2)” value is -0.219. For the same sequence, the melting temperature in the data set with HeLa Kyoto [3] (cell cycle stage: G1/S) is 54.1 °C; in the data set with HeLa Kyoto [3] (cell cycle stage: mitosis), 53.6 °C. In addition, the “solubility change mitosis (log2)” value with HeLa Kyoto [4] is -0.148.

“MSLLRSLRVFLVARTGSYPAGSLLRQSPQPRHTFYAGPRLSASASSKELLMKLRRKTGYSFVNCKKALETCGGDLKQAEIWLHKEAQKEGWSKAAKLQGRKTKEGLIGLLQEGNTTVLVEVNCETDFVSRNLKFQLLVQQVALGTMMHCQTLKDQPSAYSKGFLNSSELSGLPAGPDREGSLKDQLALAIGKLGENMILKRAAWVKVPSGFYVGSYVHGAMQSPSLHKLVLGKYGALVICETSEQKTNLEDVGRRLGQHVVGMAPLSVGSLDDEPGGEAETKMLSQPYLLDPSITLGQYVQPQGVSVVDFVRFECGEGEEAAETE [TSFM]”: the thermal stability score in the data set with HeLa Kyoto [1] (setting [5]) is -0.0634; in the data set with HeLa Kyoto [1] (cell cycle stage: mitosis), 3.2. For the same sequence, in the data set on HeLa Kyoto [2], the “solubility in G1/S (log2)” value was 0.283. Besides, the values for the melting temperature with HeLa Kyoto [3] (cell cycle stage: G1/S) and in the data set with HeLa Kyoto [3] (cell cycle stage: mitosis) were 47.6 °C and 48.9 °C, respectively. Further, the “solubility change mitosis (log2)” value in the data set with HeLa Kyoto [4] is -0.0285.

For “MSLNPPIFLKRSEENSSKFVETKQSQTTSIASEDPLQNLCLASQEVLQKAQQSGRSKCLKCGGSRMFYCYTCYVPVENVPIEQIPLVKLPLKIDIIKHPNETDGKSTAIHAKLLAPEFVNIYTYPCIPEYEEKDHEVALIFPGPQSISIKDISFHLQKRIQNNVRGKNDDPDKPSFKRKRTEEQEFCDLNDSKCKGTTLKKIIFIDSTWNQTNKIFTDERLQGLLQVELKTRKTCFWRHQKGKPDTFLSTIEAIYYFLVDYHTDILKEKYRGQYDNLLFFYSFMYQLIKNAKCSGDKETGKLTH [DTWD1]”, the thermal stability score with HeLa Kyoto [1] (setting [5]) was 1.51; in the data set on HeLa Kyoto [1] (cell cycle stage: mitosis) it was 1.96. The “solubility in G1/S (log2)” value in the data set on HeLa Kyoto [2] came to 0.19. The melting temperature came to 50.9 °C in the data set with HeLa Kyoto [3] (cell cycle stage: G1/S) and 50.6 °C in the data set on HeLa Kyoto [3] (cell cycle stage: mitosis). In addition, the “solubility change mitosis (log2)” value with HeLa Kyoto [4] is -0.213.

On to “MSLRIDVDTNFPECVVDAGKVTLGTQQRQEMDPRLREKQNEIILRAVCALLNSGGGIIKAEIENKGYNYERHGVGLDVPPIFRSHLDKMQKENHFLIFVKSWNTEAGVPLATLCSNLYHRERTSTDVMDSQEALAFLKCRTQTPTNINVSNSLGPQAAQGSVQYEGNINVSAAALFDRKRLQYLEKLNLPESTHVEFVMFSTDVSHCVKDRLPKCVSAFANTEGGYVFFGVHDETCQVIGCEKEKIDLTSLRASIDGCIKKLPVHHFCTQRPEIKYVLNFLEVHDKGALRGYVCAIKVEKFCCAVFAKVPSSWQVKDNRVRQLPTREWTAWMMEADPDLSRCPEMVLQLSLSSATPRSKPVCIHKNSECLKEQQKRYFPVFSDRVVYTPESLYKELFSQHKGLRDLINTEMRPFSQGILIFSQSWAVDLGLQEKQGVICDALLISQNNTPILYTIFSKWDAGCKGYSMIVAYSLKQKLVNKGGYTGRLCITPLVCVLNSDRKAQSVYSSYLQIYPESYNFMTPQHMEALLQSLVIVLLGFKSFLSEELGSEVLNLLTNKQYELLSKNLRKTRELFVHGLPGSGKTILALRIMEKIRNVFHCEPANILYICENQPLKKLVSFSKKNICQPVTRKTFMKNNFEHIQHIIIDDAQNFRTEDGDWYGKAKFITQTARDGPGVLWIFLDYFQTYHLSCSGLPPPSDQYPREEINRVVRNAGPIANYLQQVMQEARQNPPPNLPPGSLVMLYEPKWAQGVPGNLEIIEDLNLEEILIYVANKCRFLLRNGYSPKDIAVLFTKASEVEKYKDRLLTAMRKRKLSQLHEESDLLLQIGDASDVLTDHIVLDSVCRFSGLERNIVFGINPGVAPPAGAYNLLLCLASRAKRHLYILKASV [SLFN5]”, for which the thermal stability score in the data set on HeLa Kyoto [1] (setting [5]) worked out at 1.54; in the data set with HeLa Kyoto [1] (cell cycle stage: mitosis) it was 2.13. Besides, in the data set with HeLa Kyoto [2], the “solubility in G1/S (log2)” value is -0.0689. Also, the melting temperature in the data set on HeLa Kyoto [3] (cell cycle stage: G1/S) stood at 48.5 °C; with HeLa Kyoto [3] (cell cycle stage: mitosis) it was 49.4 °C. For the same sequence, the “solubility change mitosis (log2)” value in the data set with HeLa Kyoto [4] was -0.0585.

“MSLRQRLAQLVGRLQDPQKVARFQRLCGVEAPPRRSADRREDEKAEAPLAGDPRLRGRQPGAPGGPQPPGSDRNQCPAKPDGGGAPNGVRNGLAAELGPASPRRAGALRRNSLTGEEGQLARVSNWPLYCLFCFGTELGNELFYILFFPFWIWNLDPLVGRRLVVIWVLVMYLGQCTKDIIRWPRPASPPVVKLEVFYNSEYSMPSTHAMSGTAIPISMVLLTYGRWQYPLIYGLILIPCWCSLVCLSRIYMGMHSILDIIAGFLYTILILAVFYPFVDLIDNFNQTHKYAPFIIIGLHLALGIFSFTLDTWSTSRGDTAEILGSGAGIACGSHVTYNMGLVLDPSLDTLPLAGPPITVTLFGKAILRILIGMVFVLIIRDVMKKITIPLACKIFNIPCDDIRKARQHMEVELPYRYITYGMVGFSITFFVPYIFFFIGIS [SGPP1]”: the thermal stability score in the data set on HeLa Kyoto [1] (setting [5]) stood at 1.45; in the data set with HeLa Kyoto [1] (cell cycle stage: mitosis), 1.19. The “solubility in G1/S (log2)” value in the data set on HeLa Kyoto [2] was -0.0125. Further, the melting temperature came to 53.9 °C in the data set with HeLa Kyoto [3] (cell cycle stage: G1/S) and 53.4 °C in the data set with HeLa Kyoto [3] (cell cycle stage: mitosis). In addition, the “solubility change mitosis (log2)” value with HeLa Kyoto [4] was -0.122.

For “MSLSDWHLAVKLADQPLTPKSILRLPETELGEYSLGGYSISFLKQLIAGKLQESVPDPELIDLIYCGRKLKDDQTLDFYGIQPGSTVHVLRKSWPEPDQKPEPVDKVAAMREFRVLHTALHSSSSYREAVFKMLSNKESLDQIIVATPGLSSDPIALGVLQDKDLFSVFADPNMLDTLVPAHPALVNAIVLVLHSVAGSAPMPGTDSSSRSMPSSSYRDMPGGFLFEGLSDDEDDFHPNTRSTPSSSTPSSRPASLGYSGAAGPRPITQSELATALALASTPESSSHTPTPGTQGHSSGTSPMSSGVQSGTPITNDLFSQALQHALQASGQPSLQSQWQPQLQQLRDMGIQDDELSLRALQATGGDIQAALELIFAGGAP [UBL7]”, the thermal stability score was -0.52 in the data set with HeLa Kyoto [1] (setting [5]) and -0.245 in the data set on HeLa Kyoto [1] (cell cycle stage: mitosis). In addition, the “solubility in G1/S (log2)” value with HeLa Kyoto [2] came out at 0.396. In addition, the melting temperature with HeLa Kyoto [3] (cell cycle stage: G1/S) and with HeLa Kyoto [3] (cell cycle stage: mitosis) was 50.8 °C in each case. In addition, in the data set on HeLa Kyoto [4], the “solubility change mitosis (log2)” value was 0.156.

Values taken from the supplement of paper PMC5998384.
